The record followed here is article PMC3854871, “Knockdown of Asparagine Synthetase A Renders Trypanosoma brucei Auxotrophic to Asparagine” (PLoS Neglected Tropical Diseases, 2013).

Data set [1] addresses T1, TcAS-A (Trypanosoma cruzi, UniProt Q4CRM4).
T1 construct: gene Tc00.1047053503625.10; full ORF in pET28a(+), 6-His-tagged, expressed in E. coli BL21DE3, Ni purified; predicted dimer (homology model)
T1 sequence (Q4CRM4 1-348): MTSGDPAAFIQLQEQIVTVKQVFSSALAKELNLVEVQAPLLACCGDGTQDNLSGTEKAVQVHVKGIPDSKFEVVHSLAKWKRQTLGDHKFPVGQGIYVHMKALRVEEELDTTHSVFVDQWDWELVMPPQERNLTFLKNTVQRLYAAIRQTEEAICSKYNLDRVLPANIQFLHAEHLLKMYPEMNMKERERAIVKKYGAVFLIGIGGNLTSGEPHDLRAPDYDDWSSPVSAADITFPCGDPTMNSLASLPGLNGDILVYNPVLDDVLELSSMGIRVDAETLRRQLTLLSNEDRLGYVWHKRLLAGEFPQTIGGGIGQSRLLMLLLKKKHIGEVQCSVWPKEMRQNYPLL
As to the kind of experiment: ninhydrin asparagine formation assay, Km app method. The data set is classed as biochemical.

Data set [2] addresses T2, TbAS-A (Trypanosoma brucei, UniProt Q57WT9).
T2 construct: gene Tb07.27M11.260; full ORF in pET28a(+), 6-His-tagged, expressed in E. coli BL21DE3, Ni purified; predicted dimer (homology model)
T2 sequence (Q57WT9 1-351): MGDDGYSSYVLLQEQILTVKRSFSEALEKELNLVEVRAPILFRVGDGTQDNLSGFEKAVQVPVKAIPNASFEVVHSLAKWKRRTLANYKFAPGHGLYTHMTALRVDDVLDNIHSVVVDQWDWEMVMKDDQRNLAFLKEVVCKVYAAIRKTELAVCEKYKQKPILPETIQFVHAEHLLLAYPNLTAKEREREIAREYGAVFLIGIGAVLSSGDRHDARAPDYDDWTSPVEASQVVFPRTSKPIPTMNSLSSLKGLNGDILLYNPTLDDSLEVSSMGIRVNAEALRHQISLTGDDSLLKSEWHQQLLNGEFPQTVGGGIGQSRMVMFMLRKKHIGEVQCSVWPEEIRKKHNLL
As to the kind of experiment: ninhydrin asparagine formation assay. The data set is classed as biochemical.

The target in data set [3] is T2, TbAS-A. As to the kind of experiment: ninhydrin asparagine formation assay, Km app method. The data set is classed as biochemical.
The target in data set [4] is T1, TcAS-A. As to the kind of experiment: ninhydrin asparagine formation assay. The data set is classed as biochemical.
Substrate in the data set “purified protein”: N
As to the kind of experiment: purified protein. The conditions noted are these: excess aspartate (>20 mM) and ATP (>10 mM), ammonia in solution as nitrogen donor, 8.4 mM Mg2+, 85 mM Tris-HCl, 37 °C.

Substrate in data set [5]: NC(=O)CC[C@H](N)C(=O)O
As to the kind of experiment: ninhydrin asparagine formation assay. The data set is classed as biochemical, Trypanosoma brucei. The conditions noted are these: excess ATP and aspartate, glutamine as nitrogen donor, 8.4 mM Mg2+, 85 mM Tris-HCl, 37 °C. An excerpt:
(§1) ninhydrin asparagine formation assay on TbAS-A

Substrate in data set [6]: N[C@@H](CC(=O)O)C(=O)O
As to the kind of experiment: ninhydrin asparagine formation assay. It is filed as biochemical, Trypanosoma brucei. The conditions noted are these: excess ATP (>10 mM) and ammonia (>50 mM), 8.4 mM Mg2+, 85 mM Tris-HCl, 37 °C.
Description: as §1

Substrate in data set [7]: Nc1ncnc2c1ncn2[C@@H]1O[C@H](COP(=O)(O)OP(=O)(O)OP(=O)(O)O)[C@@H](O)[C@H]1O
As to the kind of experiment: ninhydrin asparagine formation assay. The data set is classed as biochemical, Trypanosoma brucei. The following applies: excess aspartate (>20 mM) and ammonia (>50 mM), 8.4 mM Mg2+, 85 mM Tris-HCl, 37 °C.
Description: as §1

Substrate in data set [8]: NC(=O)CC[C@H](N)C(=O)O
As to the kind of experiment: ninhydrin asparagine formation assay. The following applies: excess ATP and aspartate, glutamine as nitrogen donor, 8.4 mM Mg2+, 85 mM Tris-HCl, 37 °C. It is filed as biochemical, Trypanosoma cruzi. An excerpt:
(§2) ninhydrin asparagine formation assay on TcAS-A

Substrate in data set [9]: N[C@@H](CC(=O)O)C(=O)O
As to the kind of experiment: ninhydrin asparagine formation assay. The following applies: excess ATP (>10 mM) and ammonia (>50 mM), 8.4 mM Mg2+, 85 mM Tris-HCl, 37 °C. The data set is classed as biochemical, Trypanosoma cruzi.
Description: as §2

Substrate in data set [10]: Nc1ncnc2c1ncn2[C@@H]1O[C@H](COP(=O)(O)OP(=O)(O)OP(=O)(O)O)[C@@H](O)[C@H]1O
As to the kind of experiment: ninhydrin asparagine formation assay. The data set is classed as biochemical, Trypanosoma cruzi. The conditions noted are these: excess aspartate (>20 mM) and ammonia (>50 mM), 8.4 mM Mg2+, 85 mM Tris-HCl, 37 °C.
Description: as §2

The IC50 is the concentration that gives 50% inhibition. Read a low IC50 as greater potency. In the case of `N[C@@H](CSS(=O)(=O)O)C(=O)O` [L-cysteine-S-sulfate], the Ki at TcAS-A [1] is 129 µM; at TbAS-A [3], 137 µM. For the same molecule, the 50% inhibitory concentration (IC50) at TbAS-A [2] stood at 126 µM; at TcAS-A [4], 100 µM.

B1: TbAS-A (Trypanosoma brucei brucei TREU927) (protein)
chain: T2 sequence (Q57WT9 1-351)
notes: full ORF in pET28a(+), 6-His-tagged, expressed in E. coli BL21DE3, Ni purified; predicted dimer (homology model)
For orientation: Km means the substrate concentration at which the rate is half of its maximum. In general, kcat refers to the maximal rate divided by the concentration of active sites. The kcat/Km is the turnover number divided by the Michaelis constant. Turning to B1, the Km in the data set “purified protein” came out at 5.55 ± 0.41 mM; in data set [5] it was 8.20 ± 1.70 mM; in [6] it was 5.39 ± 0.31 mM; in data set [7], 1.80 ± 0.32 mM. Also, the catalytic constant (kcat) in the data set “purified protein” was found to be 5.69 s⁻¹; in data set [5] it was 5.58 ± 0.48 s⁻¹; in [6] it was 5.31 ± 0.11 s⁻¹; in [7] it was 6.22 ± 0.38 s⁻¹. For the same molecule, the kcat/Km in the data set “purified protein” was found to be 1030 M⁻¹ s⁻¹; in data set [5] it was 680 M⁻¹ s⁻¹; in [6], 985 M⁻¹ s⁻¹; in [7] it was 3460 M⁻¹ s⁻¹.

B2: TcAS-A (Trypanosoma cruzi strain CL Brener) (protein)
chain: T1 sequence (Q4CRM4 1-348)
notes: as for B1
As for B2, the Michaelis constant (Km) came to 7.75 ± 1.55 mM in the data set “purified protein”, 15.33 ± 3.66 mM in [8], 6.45 ± 2.05 mM in data set [9] and 0.72 ± 0.01 mM in data set [10]. The catalytic constant (kcat) came out at 2.45 s⁻¹ in the data set “purified protein”, 3.38 ± 0.41 s⁻¹ in data set [8], 2.41 ± 0.32 s⁻¹ in data set [9] and 3.45 ± 0.02 s⁻¹ in data set [10]. The kcat/Km was 316 M⁻¹ s⁻¹ in “purified protein”, 220 M⁻¹ s⁻¹ in data set [8], 374 M⁻¹ s⁻¹ in data set [9] and 4790 M⁻¹ s⁻¹ in data set [10].
